Test results taken from patent US10835594B2, “Type III secretion injectisome proteins for treatment and prevention of chlamydial infections” (priority 2014, dated 2020).

Test system: murine C. trachomatis (Cmu)
Test: Immunization of mice and live intravaginal challenge with Cmu
Design: species or system BALB/c mice
Settings: mouse, in vivo

B1: Cpn0803 protein: Chlamydia pneumoniae type III secretion-associated protein, SEQ ID NO: 1 (protein, listed as Chlamydia pneumoniae)
chain: MAAKTKTLELEDNVFLLLEGNLKRIFATPIGYTTFREFQNVVFNCANGQQEIANFFFEMLINGKLTQELAPQQKQAAHSLIAEFMMPIRVAKDIHERGEFINFITSDMLTQQERCIFLNRLARVDGQEFLLMTDVQNTCHLIRHLLARLLEAQKNPVGEKNLQEIQEEITSLKNHFDELTKALQ
For B1, the “immune response protective against live challenge” value was “protective against a live challenge with Chlamydia” and the “immune response protective against live challenge” value (listed as Cpn0803) was “Protective Against a Live Challenge with Chlamydia”.
